Reference: US20220298217A1 (FLAGSHIP PIONEERING INNOVATIONS VI, published 2022)
Where “and” joins values, the source holds several entries; their conditions need not be identical. Equal values may be shown once.

T1: Flag-PTHR1-YFP (parathyroid hormone receptor 1) expressed in transfected HEK293T cells (human, UniProt Q03431 27-593)
T1 sequence (looked up): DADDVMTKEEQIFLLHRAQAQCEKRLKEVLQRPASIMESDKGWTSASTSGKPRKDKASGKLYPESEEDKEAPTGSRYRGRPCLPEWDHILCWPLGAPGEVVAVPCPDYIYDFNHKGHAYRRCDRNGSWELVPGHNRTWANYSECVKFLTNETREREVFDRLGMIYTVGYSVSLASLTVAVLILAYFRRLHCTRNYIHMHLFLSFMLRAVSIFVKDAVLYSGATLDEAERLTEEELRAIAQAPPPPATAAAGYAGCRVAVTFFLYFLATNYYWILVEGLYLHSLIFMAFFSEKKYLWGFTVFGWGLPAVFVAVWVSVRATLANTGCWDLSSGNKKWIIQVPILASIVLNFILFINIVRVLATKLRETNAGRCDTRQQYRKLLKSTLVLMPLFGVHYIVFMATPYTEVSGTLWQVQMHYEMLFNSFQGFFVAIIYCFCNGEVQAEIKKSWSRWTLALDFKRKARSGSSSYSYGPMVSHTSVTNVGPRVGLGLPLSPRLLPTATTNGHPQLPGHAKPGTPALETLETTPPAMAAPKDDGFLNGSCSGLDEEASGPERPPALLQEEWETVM

T2: PTHR1 on CHO-K1/Ga15/PTHR1 cells (UniProt Q03431 27-593, limits assumed)
T2 sequence (looked up): T1 sequence (looked up)


target: T1, Flag-PTHR1-YFP (parathyroid hormone …); assay: cell-based or functional assay

arrestin 1, plate 13: -log10EC50	arrestin 1, plate 13: Emax	arrestin 1, plate 23: -log10EC50	arrestin 2, plate 24: -log10EC50	arrestin 1, plate 17: -log10EC50	arrestin 1, plate 17: Emax	arrestin 2, plate 18: -log10EC50	arrestin 2, plate 18: Emax	arrestin 1, plate 9: -log10EC50	arrestin 1, plate 9: Emax	Binder
-8.31 -log10EC50	7.23	-6.3 -log10EC50 and -8.03 -log10EC50	-6.24 -log10EC50 and -7.91 -log10EC50							AVAEIQLMHQRAKWELQEIGIAITLRLLARYI [R2-43]
				-15 -log10EC50	6.35	-6.1 -log10EC50	18.5			AVAEIQLMHQRAKWGLDLELAVKLQEILKDVL [R2-28]
								-8.23 -log10EC50	7.38	AVAEIQLMHQRAKWLNELRLKEEMRKILEDVY [R2-33]
								-5.08 -log10EC50	19.4	AVAEIQLMHQRAKWEIQEIGIKITLELLKEYI [R2-37]
-8.54 -log10EC50	7.41	-7.82 -log10EC50 and -8.55 -log10EC50	-7.99 -log10EC50 and -5.45 -log10EC50							AVAEIQLMHQRAKWSLREELEKLLKELLKEYI [R2-44]
								-8.43 -log10EC50	6.29	SVMMIQVMHDLAKIRAEYELREMLLRLLEEIF [R2-8]
				-7.92 -log10EC50 and -8.02 -log10EC50		-7.65 -log10EC50 and -8.08 -log10EC50				AVAEIQLMHQRAKWKLDLELAVSLRKILEDVY [R2-27]
-6.32 -log10EC50	20.4	-6.33 -log10EC50 and -6.27 -log10EC50	-6.47 -log10EC50 and -6.59 -log10EC50							AVAEIQLMHQRAKWGLEIELLKLLLSLLKEYI [R2-45]
								-8.83 -log10EC50	7.4	AVAEIQLMHQRAKWKLELELKAFLDQILKDVL [R2-36]
-5.84 -log10EC50	15.7	-6.19 -log10EC50 and -5.44 -log10EC50	-5.46 -log10EC50 and -5.86 -log10EC50							AVAEIQLMHQRAKWDVLIELAKLLAELLRRYH [R2-47]
-5.72 -log10EC50	15.1	-15.4 -log10EC50	-10.7 -log10EC50							AVAEIQLMHQRAKWKILEELLKILIDLLKQYI [R2-48]
								-8.56 -log10EC50	7.29	AVAEIQLMHQRAKWRLEIELLKKLKEILKDVY [R2-34]
								-3.53 -log10EC50	16.9	AVAEIQLMHQRAKWGVELQLKVDLRRILEDVY [R2-35]
-6.25 -log10EC50	17.3	-6.35 -log10EC50 and -6.4 -log10EC50	-6.26 -log10EC50 and -6.27 -log10EC50							AVAEIQLMHQRAKWSILEELLKILTALLDEYI [R2-46]
				-7.89 -log10EC50 and -7.57 -log10EC50		-7.79 -log10EC50 and -7.9 -log10EC50				AVAEIQLMHQRAKWGLELELKEKLRKILEDVY [R2-26]
				-8.15 -log10EC50 and -8.77 -log10EC50		-8.39 -log10EC50 and -8.46 -log10EC50				AVAEIQLMHQRAKWKLELELKEKIRKLLEDLL [R2-29]
				-7.88 -log10EC50 and -8.28 -log10EC50		-7.92 -log10EC50 and -8.3 -log10EC50				AVAEIQLMHQRAKWLEELKLKDDLRKILEDVY [R2-30]
				-8 -log10EC50 and -8.53 -log10EC50		-8.12 -log10EC50 and -8.18 -log10EC50				AVAEIQLMHQRAKWGLDLELRARLREILRDVY [R2-31]

same assay, conditions: not given

arrestin 1, plate 19: -log10EC50	arrestin 2, plate 10: -log10EC50	arrestin 2, plate 20: -log10EC50	arrestin 1, plate 11: -log10EC50	arrestin 1, plate 11: Emax	arrestin 1, plate 21: -log10EC50	arrestin 2, plate 22: -log10EC50	arrestin 1, plate 5: -log10EC50	arrestin 1, plate 25: -log10EC50	arrestin 1, plate 25: Emax	Binder
-7.99 -log10EC50 and -8.4 -log10EC50	-8.31 -log10EC50	-8.09 -log10EC50 and -8.12 -log10EC50								AVAEIQLMHQRAKWLNELRLKEEMRKILEDVY [R2-33]
-3.6 -log10EC50 and -6.48 -log10EC50		-6.3 -log10EC50 and -6.41 -log10EC50								AVAEIQLMHQRAKWEIQEIGIKITLELLKEYI [R2-37]
			-7.98 -log10EC50	7.87	-4.99 -log10EC50 and -7.96 -log10EC50	-7.63 -log10EC50 and -8.09 -log10EC50				AVAEIQLMHQRAKWAIQEIGIKITRELLERYL [R2-42]
							-5.38 -log10EC50 and -8.1 -log10EC50 and -6.02 -log10EC50	-11.5 -log10EC50	10.3	AVAEIQLMHQRAKWELEFELFREFLKLLVDFF [I3 (R1-97)]
	-9.46 -log10EC50									SVMMIQVMHDLAKIRAEYELREMLLRLLEEIF [R2-8]
-8.33 -log10EC50 and -8.54 -log10EC50		-8.27 -log10EC50 and -8.6 -log10EC50								AVAEIQLMHQRAKWKLELELKAFLDQILKDVL [R2-36]
								-9.83 -log10EC50	6.37	GIAVITLMLLRAYLELLEELVKILHELLRRYH [R2-52]
			2.64 -log10EC50	15.4	-6.11 -log10EC50 and -6.23 -log10EC50	-6.95 -log10EC50 and -6.4 -log10EC50				AVAEIQLMHQRAKWELQEIGIKITLDLLEAYL [R2-39]
-8.18 -log10EC50 and -8.48 -log10EC50		-8.09 -log10EC50 and -8.34 -log10EC50								AVAEIQLMHQRAKWRLEIELLKKLKEILKDVY [R2-34]
			-6.24 -log10EC50	14.7	-5.44 -log10EC50	-6.07 -log10EC50				AVAEIQLMHQRAKWDLLIELVKLLHELLKEYI [R2-40]
-6.57 -log10EC50 and -7.44 -log10EC50		-7.67 -log10EC50 and -7.82 -log10EC50								AVAEIQLMHQRAKWGVELQLKVDLRRILEDVY [R2-35]
					-8.42 -log10EC50	-6.03 -log10EC50				AVAEIQLMHQRAKWEIQEIGIKITLDLLQTLK [R2-41]
					-10.7 -log10EC50	-14 -log10EC50				AVAEIQLMHQRAKWELLEELLKILLELLKEYI [R2-38]
								-13.8 -log10EC50	6.47	GVAMLQIMHDLAKIKQELELKDSMKKILEDVL [R2-50]
								-4.53 -log10EC50	12.5	GIAVITLMVLRALLELQEIGRKITLELLKEYI [R2-51]

same assay, conditions: not given

arrestin 2, plate 6: -log10EC50	arrestin 2, plate 26: -log10EC50	arrestin 2, plate 26: Emax	arrestin 1, plate 7: -log10EC50	arrestin 2, plate 8: -log10EC50	arrestin 1, plate 15: -log10EC50	arrestin 1, plate 15: Emax	arrestin 2, plate 16: -log10EC50	arrestin 2, plate 16: Emax	arrestin 1, plate 7: Emax	Binder
-6.2 -log10EC50 and -5.16 -log10EC50 and -6.19 -log10EC50	-6.36 -log10EC50	21.5								AVAEIQLMHQRAKWELEFELFREFLKLLVDFF [I3 (R1-97)]
			-14 -log10EC50 and -12.2 -log10EC50	5.1 -log10EC50 and -14.8 -log10EC50						GVAMIQIMHDIAKIRAEYELREMLLRLLEEIF [R2-2]
					-8.79 -log10EC50	6.38	-14 -log10EC50	6.59		GIAVITLMDLRAYLRAEYELREMLLRLLEEIF [R2-13]
			-15 -log10EC50	-9.21 -log10EC50					6.35	GVAELQLMHDLAKIRAEYELREMLLRLLEEIF [R2-1, listing 1 of 2 here]
		6.48								GIAVITLMLLRAYLELLEELVKILHELLRRYH [R2-52]
					-8.27 -log10EC50 and -8.59 -log10EC50		-8.37 -log10EC50 and -8.76 -log10EC50			AVAEIQLMHQRAKWKLELELKVKLLEILKDVY [R2-25]
	-13.9 -log10EC50	6.62			-5.92 -log10EC50	32.9				GVAMLQIMHDLAKIKQELELKDSMKKILEDVL [R2-50]
	-13.8 -log10EC50	6.47								GIAVITLMVLRALLELQEIGRKITLELLKEYI [R2-51]

Binder	arrestin 2, plate 6: -log10EC50	arrestin 2, plate 26: -log10EC50	arrestin 2, plate 26: Emax	arrestin 1, plate 7: -log10EC50	arrestin 2, plate 8: -log10EC50	arrestin 1, plate 15: -log10EC50	arrestin 1, plate 15: Emax	arrestin 2, plate 16: -log10EC50	arrestin 2, plate 16: Emax	arrestin 1, plate 7: Emax
AVAEIQLMHQRAKWELEYELFEMFLKLLEEIF [I1 (R1-100)]				-6.22 -log10EC50 (2×) and -6.24 -log10EC50	-5.41 -log10EC50 and -7.67 -log10EC50 and -6.27 -log10EC50					

same assay, conditions: not given

arrestin 2, plate 8: Emax	arrestin 1, plate 23: Emax	arrestin 2, plate 24: Emax	arrestin 1, plate 21: Emax	arrestin 2, plate 22: Emax	arrestin 1, plate 1: -log10EC50	arrestin 2, plate 2: -log10EC50	Binder
6.41							GVAELQLMHDLAKIRAEYELREMLLRLLEEIF [R2-1, listing 1 of 2 here]
	6.53	6.67					AVAEIQLMHQRAKWKILEELLKILIDLLKQYI [R2-48]
			11.4	20.9			AVAEIQLMHQRAKWDLLIELVKLLHELLKEYI [R2-40]
			6.44	23.7			AVAEIQLMHQRAKWEIQEIGIKITLDLLQTLK [R2-41]
			6.36	6.45			AVAEIQLMHQRAKWELLEELLKILLELLKEYI [R2-38]
					-8.58 -log10EC50 and -8.76 -log10EC50 and -8.45 -log10EC50	-8.52 -log10EC50 and -8.51 -log10EC50 and -8.44 -log10EC50	AVAEIQLMHQRAKWIQDARRRAFLHKLIAEIH [LA-PM-FL (R1-81)]

target: T2, PTHR1 on CHO-K1/Ga15/PTHR1 cells; assay: cell-based or functional assay

cAMP accumulation (HTRF): -log10EC50	cAMP accumulation (HTRF): Emax [%]	Binder
-7.02 -log10EC50 (as headed)	102	GVAELQLMHDLAKIRAEYELREMLLRLLEEIF [R2-1, listing 2 of 2 here]
